Results reported in PMC4475461.
Read-outs that look alike come from different tables or passages of the source.

T1: HLTF HIRAN domain (Homo sapiens, UniProt Q14527 55-180)
T1 sequence: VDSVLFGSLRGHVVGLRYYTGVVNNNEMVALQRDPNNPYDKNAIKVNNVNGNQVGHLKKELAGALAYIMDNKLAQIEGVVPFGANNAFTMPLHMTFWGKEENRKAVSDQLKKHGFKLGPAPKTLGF


What was measured:
HLTF HIRAN domain [1] = biological target: T1, HLTF HIRAN domain; experiment: NMR
HLTF HIRAN domain [2] = biological target: T1, HLTF HIRAN domain; experiment: NMR; remark: listed apart in the source

Binder | binding result (HLTF HIRAN domain [1]) | binding result (HLTF HIRAN domain [2])
TTTTTTTTTT (ssDNA) [dT10 (NMR)] | binds | 
d(GCTGATAAAT) duplex (dsDNA) DNA 1: GCTGATAAAT DNA 2: ATTTATCAGC |  | no binding
GCTGATAAAT (ssDNA) [d(GCTGATAAAT)] |  | binds
